Source: the supplement of paper PMC10126150
± gives the standard deviation of the averaged measurements.

System: ATP
Assay: switch fluorescence ratio, 500 uM ATP over buffer (Cy3 cluster intensity, sum of 5 cycles each) (fold (ratio)); higher = stronger signal-on switching upon ATP binding; sequences stand for … in TCGTCGGCAGCGTCAGATGTGTATAAGAGACAGTTTTTTTTTTTTTTTTTTTTTTTTT…TC
Details: aptamer strand: ATP DNA aptamer (quencher-CACCTGGGGGAGTATTGCGGAGGAAGG + anchor), 100 nM annealed; ATP concentration: 500 uM
How it was run: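 The quencher-labelled ATP aptamer, at 100 nM, was annealed to Cy3-labelled switching-strand clusters on a modified Illumina MiSeq flow-cell. The clusters were imaged in selection buffer, then after 15 min with 500 uM ATP at 22 °C, and this buffer/ATP cycle ran five times with NaOH stripping and re-annealing between runs. Per-cluster fluorescence ratios, summed target-cycle over summed buffer-cycle Cy3 intensity, were averaged per switch-domain sequence. Clusters outside 100-1000 RFU were excluded.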
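Note: ATP exposure 15 min at 22 °C before imaging.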

| Sequence | switch fluorescence ratio |
| --- | --- |
| AAAAATTAAA | 1.002 ± 0.0018 |
| CAATTCAGTT | 0.991 ± 0.024 |
| ATAAGTTTTT | 1 ± 0.023 |
| ATGTTGTTGG | 0.9676 ± 0.007 |
| AAAATGGGCT | 0.996 ± 0.038 |
| TTCTTAAAAA | 0.993 ± 0.026 |
| GCAAGTAGTT | 1.03 ± 0.053 |
| TAGGGGTCTC | 1.07 ± 0.038 |
| GGTGAGGATG | 0.994 ± 0.018 |
| AGCTTCTAAC | 1.025 ± 0.0036 |
| AAGACCTTAT | 1.05 ± 0.011 |
| ATTGTGGGGG | 0.991 ± 0.016 |
| GTGTGAAAAC | 1.02 ± 0.02 |
| GGGTAAATTT | 0.996 ± 0.015 |
| GAATAAATTT | 1.02 ± 0.069 |
| CGTTATAGTC | 1.02 ± 0.047 |
| TTCGAGCTAA | 1.2 ± 0.26 |
| ACTGGGGAGG | 1.01 ± 0.022 |
| ATGGGAGAAT | 0.9801 ± 0.009 |
| GGTAGGGATA | 1.08 ± 0.11 |
| CGTTGGAATA | 1.01 ± 0.042 |
| TTGGAATTGA | 0.992 ± 0.012 |
| ACTGGTTATC | 1.02 ± 0.046 |

| Sequence | switch fluorescence ratio |
| --- | --- |
| AAGTGGGGCG | 1.02 ± 0.034 |
| CGGGAGACAT | 1.01 ± 0.014 |
| CACTTTGGAT | 0.9914 ± 0.0032 |
| GAGCCAGGCA | 0.974 ± 0.042 |
| CCTGTCATCC | 1.17 ± 0.023 |
| TAAACACAGG | 1.16 ± 0.044 |
| AGAATTAGAG | 0.969 ± 0.054 |
| GCGATCGGTT | 1.01 ± 0.049 |
| TGGTGAGTTT | 0.984 ± 0.019 |
| GAGAGTATAA | 0.99 ± 0.022 |
| ATGACCCCTC | 1.044 ± 0.007 |
| GGGTTGCACG | 0.9936 ± 0.0015 |
| AGGGGATATT | 0.996 ± 0.01 |
| ATTTTGTTCG | 1.04 ± 0.011 |
| AGCTATCACG | 1 ± 0.032 |
| ACAGTCGACT | 1.032 ± 0.0074 |
| AGTCGGGGGA | 1.01 ± 0.023 |
| GGCGCCGGCT | 0.992 ± 0.079 |
| GAATACTTGG | 1.04 ± 0.054 |
| AGTGTGTTTT | 0.996 ± 0.015 |
| TGGTCCTAGT | 0.975 ± 0.017 |
| ATGCTCAGTT | 0.9836 ± 0.0062 |
| ATTGGCACGG | 0.986 ± 0.034 |

| Sequence | switch fluorescence ratio |
| --- | --- |
| CAAGGGGCAA | 0.964 ± 0.032 |
| GTGTTTTCTT | 1.006 ± 0.0025 |
| GGTTAAACAG | 0.982 ± 0.041 |
| TCAGATTGGC | 1.04 ± 0.12 |
| GTTTTTCCAG | 0.9844 ± 0.0061 |
| CGCTTAATTA | 1.01 ± 0.041 |
| TGTCCCACAA | 0.999 ± 0.035 |
| AGATACAGTT | 1.02 ± 0.034 |
| CTGGGTAAGT | 1.017 ± 0.0074 |
| AGGCTCATTG | 1.01 ± 0.033 |
| GCTAGAAATG | 0.978 ± 0.043 |
| TTCCTGGCGG | 1.11 ± 0.1 |
| GTAAGAGGAA | 1.01 ± 0.044 |
| TTGGTGATGA | 1.02 ± 0.023 |
| ATTGTACGGT | 1.03 ± 0.013 |
| TATTGAGAAG | 0.987 ± 0.025 |
| TTGGTTTAAT | 1.01 ± 0.034 |
| GTTCGGAGTG | 0.9877 ± 0.0086 |
| CACCGGAAAA | 1.09 ± 0.094 |
| CCTGGGAAGG | 0.991 ± 0.025 |
| GGAACTTTTA | 1.01 ± 0.023 |
| ATGGTGCGGA | 0.956 ± 0.06 |
| CGGATGAATG | 0.999 ± 0.029 |

| Sequence | switch fluorescence ratio |
| --- | --- |
| TAAATGAGGA | 1.03 ± 0.047 |
| GGGCATGTTA | 0.9692 ± 0.0032 |
| GGCTGAAGTT | 0.994 ± 0.022 |
| AGTCCAAGAG | 0.9889 ± 0.0045 |
| TTTACAAGGT | 1.03 ± 0.014 |
| GTGGGGCGGT | 0.9832 ± 0.006 |
| CTTTAATTCG | 1 ± 0.028 |
| CGAGGGGGTT | 1 ± 0.02 |
| AATCAATTGT | 0.978 ± 0.053 |
| GGTCGGGTAT | 1.01 ± 0.031 |
| GGCAATTGGA | 1.01 ± 0.011 |
| ACACCTCATA | 1.1 ± 0.039 |
| AATCTGCTTG | 1.05 ± 0.024 |
| CGAATTTACC | 1.19 ± 0.15 |
| AACGGTGACG | 1.03 ± 0.072 |
| CCATGTGTCG | 1.05 ± 0.064 |
| GAGGGGCTTT | 0.982 ± 0.018 |
| TTGTATTTGG | 1.02 ± 0.043 |
| CATATGTCTG | 0.994 ± 0.015 |
| ATGTGCAGCG | 1.025 ± 0.0049 |
| ACATGGGCTA | 1.09 ± 0.11 |
| CAGGTCGACG | 1.05 ± 0.032 |
| GAGTAAGGTA | 1.02 ± 0.024 |

| Sequence | switch fluorescence ratio |
| --- | --- |
| TTTTAAACGT | 1.04 ± 0.039 |
| AGCTTTTTGT | 0.947 ± 0.023 |
| TACTTTTTTT | 1.01 ± 0.037 |
| CATTTTTGGC | 1.03 ± 0.027 |
| TGGTTTTTAC | 1.01 ± 0.038 |
| GGAGTTAGGA | 0.9866 ± 0.0098 |
| GGGGCTTATC | 1.03 ± 0.043 |
| TGACAGTTAT | 1.06 ± 0.038 |
| GGAGTAGACT | 1.02 ± 0.02 |
| TTGGATACCT | 1.05 ± 0.13 |
| GCGTCCAGTT | 1.09 ± 0.12 |
| CTAGTATGGA | 1.02 ± 0.031 |
| ATGAGGGGCG | 1.02 ± 0.041 |
| GGCGTAGTCA | 0.9855 ± 0.0022 |
| GTTGGTCTGA | 0.954 ± 0.022 |
| TACGGTTTGG | 0.988 ± 0.056 |
| CGGACGGGTG | 1.02 ± 0.018 |
| CGGGGGGGGT | 1.01 ± 0.031 |
| CAGTGGGGGT | 1 ± 0.03 |
| GTGAATTGGG | 1.03 ± 0.03 |
| TGCGATTATG | 1.02 ± 0.041 |
| AAATGAGTGT | 0.975 ± 0.026 |
| TAGAGGGGGC | 0.987 ± 0.025 |

| Sequence | switch fluorescence ratio |
| --- | --- |
| TGGCGTTGGG | 1.02 ± 0.046 |
| ATATTAAGTC | 1.02 ± 0.013 |
| CAGTGAAAAA | 1.06 ± 0.089 |
| TGGTTTTTTT | 0.992 ± 0.018 |
| TACAAATCTA | 1 ± 0.036 |
| TTAATGGGGC | 1.01 ± 0.061 |
| GGTTATTGTG | 0.968 ± 0.027 |
| ACACCAGGGG | 4.18 ± 0.57 |
| TCCTGGGTTT | 1.27 ± 0.48 |
| TTGGAAGTGG | 0.9995 ± 0.0088 |
| TGGGATGGAG | 0.976 ± 0.037 |
| AGTGTGCGTG | 0.9812 ± 0.0076 |
| TTCGCCAGAT | 1.04 ± 0.035 |
| GGGACATTAT | 1 ± 0.02 |
| TCGTAAACGG | 1.01 ± 0.02 |
| TCGATGGACT | 1.03 ± 0.014 |
| TTTTAAGGGT | 0.999 ± 0.036 |
| TAGCACTATC | 1.35 ± 0.076 |
| TTTCGTTGCT | 0.994 ± 0.018 |
| TGGGTTGAGG | 0.997 ± 0.016 |
| TTATGTGTTT | 1.014 ± 0.006 |
| TATAGTATTT | 0.984 ± 0.015 |
| ATATGCTTTC | 0.994 ± 0.011 |

| Sequence | switch fluorescence ratio |
| --- | --- |
| TCAATGGTTA | 0.978 ± 0.014 |
| TGTGTGAGGG | 1.036 ± 0.0086 |
| ATGGGCGGGT | 1 ± 0.035 |
| TTTCACGGGA | 1.07 ± 0.066 |
| GGGAGAGGGG | 0.987 ± 0.02 |
| TTTAAAAGA | 1 ± 0.02 |
| TTCAGGGTTT | 1.5 ± 0.9 |
| ACTACGATAT | 1.34 ± 0.022 |
| AAGCATTGTT | 0.999 ± 0.035 |
| TGGTGGGATC | 1.03 ± 0.025 |
| CGTAGTTTAT | 1.07 ± 0.022 |
| GACGACGTGT | 1.43 ± 0.35 |
| GCTTCGTTGG | 1.17 ± 0.18 |
| ATTGTTTTAC | 1.02 ± 0.014 |
| ATAAGGGCTA | 0.99 ± 0.031 |
| GAAGTGGGGG | 1.01 ± 0.042 |
| TGGGTCGGGA | 0.982 ± 0.031 |
| GGGTTTGGTT | 0.976 ± 0.041 |
| TTAATGGTTA | 1.02 ± 0.029 |
